Columns and labels:
HLA-B*07:02 = experiment: IEDB peptide-MHC binding, purified MHC/competitive/fluorescence; filed as Kd, often an IC50 or EC50 that approximates it; ≥ and ≤ were set here for values at or beyond the usual limits of such assays
HLA-B*44:02 = experiment: as above
HLA-B*57:01 [1] = experiment: as above; conditions: source organism: Shigella flexneri 5 str. 8401
HLA-A*01:01 = experiment: as above
HLA-A*30:01 = experiment: as above; conditions: source organism: Shigella flexneri 5 str. 8401
HLA-A*30:02 = experiment: as above
HLA-A*29:02 [2] = experiment: as above; conditions: source organism: Shigella flexneri 5 str. 8401
HLA-A*68:02 [3] = experiment: as above; conditions: source organism: Shigella flexneri 5 str. 8401
HLA-B*40:01 = experiment: as above
HLA-B*18:01 [4] = experiment: as above; conditions: source organism: Shigella flexneri 5 str. 8401
HLA-B*58:01 = experiment: as above
HLA-B*27:03 [5] = experiment: as above; conditions: source organism: Shigella flexneri 5 str. 8401
HLA-A*02:19 = experiment: as above; conditions: source organism: Shigella flexneri 5 str. 8401
HLA-A*66:01 = experiment: as above; conditions: source organism: Shigella flexneri 5 str. 8401
HLA-A*02:03 = experiment: as above; conditions: source organism: Shigella flexneri 5 str. 8401
HLA-B*15:17 = experiment: as above; conditions: source organism: Shigella flexneri 5 str. 8401
HLA-A*02:01 = experiment: as above; conditions: source organism: Shigella flexneri 5 str. 8401
HLA-B*14:02 [6] = experiment: as above; conditions: source organism: Shigella flexneri 5 str. 8401
HLA-B*53:01 = experiment: as above
HLA-B*46:01 [7] = experiment: as above; conditions: source organism: Shigella flexneri 5 str. 8401
HLA-A*26:01 = experiment: as above; conditions: source organism: Shigella flexneri 5 str. 8401
HLA-B*15:01 [8] = experiment: as above; conditions: source organism: Shigella flexneri 5 str. 8401
HLA-B*51:01 [9] = experiment: as above; conditions: source organism: Shigella flexneri 5 str. 8401
HLA-A*11:01 = experiment: as above
HLA-A*03:01 = experiment: as above; conditions: source organism: Shigella flexneri 5 str. 8401
HLA-B*27:05 = experiment: as above; conditions: source organism: Shigella flexneri 5 str. 8401
HLA-B*08:01 = experiment: as above
HLA-B*83:01 = experiment: as above; conditions: source organism: Burkholderia mallei SAVP1
HLA-B*15:42 = experiment: as above; conditions: source organism: Burkholderia mallei SAVP1
HLA-B*45:06 = experiment: as above; conditions: source organism: Burkholderia mallei SAVP1
HLA-B*57:01 [10] = experiment: IEDB peptide-MHC binding, purified MHC/direct/fluorescence; filed as Kd, often an IC50 or EC50 that approximates it; ≥ and ≤ were set here for values at or beyond the usual limits of such assays; conditions: source organism: Burkholderia mallei ATCC 23344
HLA-A*29:02 [11] = experiment: as above; conditions: source organism: Burkholderia mallei ATCC 23344
HLA-A*68:02 [12] = experiment: as above; conditions: source organism: Burkholderia mallei ATCC 23344
HLA-B*18:01 [13] = experiment: as above; conditions: source organism: Burkholderia mallei ATCC 23344
HLA-B*27:03 [14] = experiment: as above; conditions: source organism: Burkholderia mallei ATCC 23344
HLA-A*24:03 = experiment: as above; conditions: source organism: Burkholderia mallei ATCC 23344
HLA-B*39:01 = experiment: as above; conditions: source organism: Burkholderia mallei ATCC 23344
HLA-B*14:02 [15] = experiment: as above; conditions: source organism: Burkholderia mallei ATCC 23344
HLA-B*46:01 [16] = experiment: as above; conditions: source organism: Burkholderia mallei ATCC 23344
HLA-B*15:01 [17] = experiment: as above; conditions: source organism: Burkholderia mallei ATCC 23344
HLA-B*51:01 [18] = experiment: as above; conditions: source organism: Burkholderia mallei ATCC 23344
[19] = source organism: Shigella flexneri 5 str. 8401
[20] = source organism: Burkholderia mallei SAVP1

With FGALFMWLL the Kd (HLA-B*07:02; [19]) was at least 5 µM, the Kd (HLA-B*44:02; [19]) was at least 5 µM and the Kd (HLA-B*57:01 [1]) was at least 20 µM. For the same sequence, the Kd (HLA-A*01:01; [19]) was at least 5 µM, the Kd (HLA-A*30:01) was at least 5 µM and the Kd (HLA-A*30:02; [19]) was at least 5 µM. The Kd (HLA-A*29:02 [2]) was 0.138 µM, the Kd (HLA-A*68:02 [3]) was 0.741 µM and the Kd (HLA-B*40:01; [19]) was at least 5 µM. For the same sequence, the Kd (HLA-B*18:01 [4]) was at least 20 µM, the Kd (HLA-B*58:01; [19]) was at least 5 µM and the Kd (HLA-B*27:03 [5]) was at least 20 µM. The Kd (HLA-A*02:19) was at least 20 µM, the Kd (HLA-A*66:01) was at least 5 µM and the Kd (HLA-A*02:03) was at least 20 µM. It also gave a Kd (HLA-B*15:17) of at least 20 µM, a Kd (HLA-A*02:01) of at least 20 µM and a Kd (HLA-B*14:02 [6]) of at least 5 µM. The Kd (HLA-B*53:01; [19]) was at least 5 µM, the Kd (HLA-B*46:01 [7]) was at least 20 µM and the Kd (HLA-A*26:01) was at least 20 µM. The Kd (HLA-B*15:01 [8]) was at least 20 µM, the Kd (HLA-B*51:01 [9]) was at least 20 µM and the Kd (HLA-A*11:01; [19]) was at least 5 µM. The Kd (HLA-A*03:01) was at least 20 µM, the Kd (HLA-B*27:05) was at least 5 µM and the Kd (HLA-B*08:01; [19]) was at least 5 µM.

MVFGRFSFA was tested, and the Kd (HLA-B*07:02; [20]) was at least 5 µM, the Kd (HLA-B*83:01) was at least 5 µM and the Kd (HLA-B*44:02; [20]) was at least 5 µM. The Kd (HLA-A*01:01; [20]) was at least 5 µM, the Kd (HLA-A*30:02; [20]) was at least 20 µM and the Kd (HLA-B*40:01; [20]) was at least 5 µM. The Kd (HLA-B*58:01; [20]) was at least 5 µM, the Kd (HLA-B*15:42) was at least 5 µM and the Kd (HLA-B*45:06) was at least 5 µM. It also gave a Kd (HLA-B*53:01; [20]) of at least 5 µM, a Kd (HLA-A*11:01; [20]) of 1.5 µM and a Kd (HLA-B*08:01; [20]) of at least 5 µM. It also gave a Kd (HLA-B*57:01 [10]) of at least 20 µM, a Kd (HLA-A*29:02 [11]) of 0.192 µM and a Kd (HLA-A*68:02 [12]) of at most 0.001 µM. For the same sequence, the Kd (HLA-B*18:01 [13]) was at least 20 µM, the Kd (HLA-B*27:03 [14]) was at least 20 µM and the Kd (HLA-A*24:03) was at least 20 µM. It also gave a Kd (HLA-B*39:01) of at least 20 µM, a Kd (HLA-B*14:02 [15]) of 1.18 µM and a Kd (HLA-B*46:01 [16]) of at least 20 µM. For the same sequence, the Kd (HLA-B*15:01 [17]) was at least 20 µM and the Kd (HLA-B*51:01 [18]) was at least 20 µM.

Source: the Immune Epitope Database (IEDB)
